Molecular target: recombinant N-terminal His6-tagged GlgB (Synechocystis sp. PCC 6803) (UniProt P52981)
Experiment: MST

Chain of recombinant N-terminal His6-tagged GlgB (Synechocystis sp. PCC 6803) (P52981 whole entry): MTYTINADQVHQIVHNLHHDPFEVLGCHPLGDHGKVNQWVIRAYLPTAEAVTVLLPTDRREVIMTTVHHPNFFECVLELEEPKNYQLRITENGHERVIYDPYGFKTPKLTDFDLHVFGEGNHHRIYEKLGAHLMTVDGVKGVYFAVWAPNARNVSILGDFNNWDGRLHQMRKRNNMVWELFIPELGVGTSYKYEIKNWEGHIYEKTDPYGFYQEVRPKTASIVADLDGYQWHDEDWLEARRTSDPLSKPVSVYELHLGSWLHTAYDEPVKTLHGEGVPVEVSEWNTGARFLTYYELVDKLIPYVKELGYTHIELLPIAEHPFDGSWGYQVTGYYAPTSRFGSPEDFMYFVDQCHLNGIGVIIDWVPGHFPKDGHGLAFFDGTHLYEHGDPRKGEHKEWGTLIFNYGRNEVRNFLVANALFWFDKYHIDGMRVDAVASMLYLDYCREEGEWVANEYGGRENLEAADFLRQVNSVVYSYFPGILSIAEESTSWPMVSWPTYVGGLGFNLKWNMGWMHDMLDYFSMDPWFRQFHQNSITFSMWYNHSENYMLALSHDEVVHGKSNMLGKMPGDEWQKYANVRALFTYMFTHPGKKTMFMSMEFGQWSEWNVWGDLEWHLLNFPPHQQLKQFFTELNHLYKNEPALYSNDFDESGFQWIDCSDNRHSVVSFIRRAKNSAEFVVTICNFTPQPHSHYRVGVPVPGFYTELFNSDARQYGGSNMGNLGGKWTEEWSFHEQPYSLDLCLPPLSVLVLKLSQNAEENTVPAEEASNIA

“recombinant C-terminal StrepII-tagged ScSbtB (SbtB from Synechocystis sp. PCC 6803) (from UniProt P73954 1-110) (natural protein)” was tested, and the Kd was 220 nM.

From PMC8654305
